Data reported in PMC9742257.
Values belong to the substance of their own block, whether it stands above or below them.

Tests used:
[1] = molecular target: N-terminal tagged 3XFLAG artemin construct (A. fransciscina); experiment: native MS; 24mer isolated (manual fixed quad profile of 10,000), then collision induced dissociation (argon); released subunits observed; dimers are held by inter-subunit disulfides
[2] = molecular target: N-terminal tagged 3XFLAG artemin construct (A. fransciscina); experiment: cryo-EM structure; single particle cryo-EM, 0.2-1.5 mg/ml protein on Quantifoil grids, 300 keV Titan Krios; C1 ab-initio then octahedral symmetry imposed
[3] = molecular target: N-terminal tagged 3XFLAG artemin construct (A. fransciscina); experiment: native MS; intact complex; 200 mM ammonium acetate, 1-2 uM protein, Waters Synapt G2s-i
[4] = molecular target: artemin with a C-terminal 6xHis tag (A. fransciscina); experiment: native MS; 24mer isolated (manual fixed quad profile of 10,000), then collision induced dissociation (argon); released subunits observed; dimers are held by inter-subunit disulfides
[5] = molecular target: artemin with a C-terminal 6xHis tag (A. fransciscina); experiment: cryo-EM structure; single particle cryo-EM, 0.2-1.5 mg/ml protein on Quantifoil grids, 300 keV Titan Krios; C1 ab-initio then octahedral symmetry imposed
[6] = molecular target: artemin with a C-terminal 6xHis tag (A. fransciscina); experiment: native gel or EMSA; Native PAGE of the protein after affinity purification and SEC
[7] = molecular target: artemin with a C-terminal 6xHis tag (A. fransciscina); experiment: native MS; intact complex; 200 mM ammonium acetate, 1-2 uM protein, Waters Synapt G2s-i
[8] = molecular target: fluorescent artemin-His (A. fransciscina); experiment: native MS; 24mer isolated (manual fixed quad profile of 10,000), then collision induced dissociation (argon); released subunits observed; dimers are held by inter-subunit disulfides
[9] = molecular target: fluorescent artemin-His (A. fransciscina); experiment: native MS; intact complex; 200 mM ammonium acetate, 1-2 uM protein, Waters Synapt G2s-i

stoichiometry N [1]: 2
stoichiometry N [2]: 24
stoichiometry N [3]: 24
Substance: N-terminal tagged 3XFLAG artemin construct (natural protein)

stoichiometry N [4]: 2
stoichiometry N [5]: 24
stoichiometry N [6]: 24
stoichiometry N [7]: 24
Substance: artemin with a C-terminal 6xHis tag (natural protein)

stoichiometry N [8]: 2
stoichiometry N [9]: 24
Substance: fluorescent artemin-His (natural protein)
